# According to article PMC10786891, “Massively parallel profiling of RNA-targeting CRISPR-Cas13d”:
# Positions count from the first letter of the chain named. In names and notes the source's numbering stands.
# T1: EsCas13d, nuclease-dead (Eubacterium siraeum, UniProt B0MS50, R295A;H300A;R849A;H854A)
# T1 sequence: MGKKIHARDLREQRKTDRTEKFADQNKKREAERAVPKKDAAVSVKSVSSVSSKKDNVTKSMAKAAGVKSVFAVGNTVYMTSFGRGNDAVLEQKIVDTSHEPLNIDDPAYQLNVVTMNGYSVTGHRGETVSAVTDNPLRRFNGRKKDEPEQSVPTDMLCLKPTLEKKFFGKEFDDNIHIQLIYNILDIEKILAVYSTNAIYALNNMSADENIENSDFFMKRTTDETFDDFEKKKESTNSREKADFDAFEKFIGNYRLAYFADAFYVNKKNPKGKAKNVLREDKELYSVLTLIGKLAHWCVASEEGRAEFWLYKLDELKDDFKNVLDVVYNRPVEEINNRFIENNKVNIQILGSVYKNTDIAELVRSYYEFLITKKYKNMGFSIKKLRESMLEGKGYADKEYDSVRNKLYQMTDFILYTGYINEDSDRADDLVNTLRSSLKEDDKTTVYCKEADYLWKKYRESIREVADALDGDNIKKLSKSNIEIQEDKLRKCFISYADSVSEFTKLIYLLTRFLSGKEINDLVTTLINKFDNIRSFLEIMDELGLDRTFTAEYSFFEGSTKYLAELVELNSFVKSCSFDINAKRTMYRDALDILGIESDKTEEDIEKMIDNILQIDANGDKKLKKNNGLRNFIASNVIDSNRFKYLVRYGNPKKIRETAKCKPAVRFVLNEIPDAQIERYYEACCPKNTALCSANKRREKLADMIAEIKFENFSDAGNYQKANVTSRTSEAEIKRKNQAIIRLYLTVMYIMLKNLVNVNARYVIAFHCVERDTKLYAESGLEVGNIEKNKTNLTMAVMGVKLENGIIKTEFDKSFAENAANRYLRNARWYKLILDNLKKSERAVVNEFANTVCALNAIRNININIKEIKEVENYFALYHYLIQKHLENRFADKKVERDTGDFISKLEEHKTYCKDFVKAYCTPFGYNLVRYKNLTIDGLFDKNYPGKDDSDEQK
# B1: target 2 MT 5'PFS UAU 3'PFS ACU (mixed)
# RNA 1: CACCCGUGCAAAAUUGCAGGGGUCUAAAACCUUCUCCAAAUUGUUUCAUCCU
# RNA 2: GGGAAUGGAUCCACAUCUACGAAUUCUAUAGGAUGAAACAAUUUGGAGAAGACUAGAUCGGAAGAGCACACGU
# B2: target 2 MT 5'PFS UGG 3'PFS UAC (mixed)
# RNA 1: B1 RNA 1
# RNA 2: B1 RNA 2 with A28G, U29G, A52U, C53A, U54C
# B3: target 2 MT 5'PFS UAU 3'PFS ACG (mixed)
# RNA 1: B1 RNA 1
# RNA 2: B1 RNA 2 with U54G
# B4: target 2 MT 5'PFS GCU 3'PFS CGC (mixed)
# RNA 1: B1 RNA 1
# RNA 2: B1 RNA 2 with U27G, A28C, A52C, C53G, U54C
# B5: target 2 MT 5'PFS AUG 3'PFS UGU (mixed)
# RNA 1: B1 RNA 1
# RNA 2: B1 RNA 2 with U27A, A28U, U29G, A52U, C53G
# B6: target 2 MT 5'PFS GCC 3'PFS ACU (mixed)
# RNA 1: B1 RNA 1
# RNA 2: B1 RNA 2 with U27G, A28C, U29C
# B7: target 2 MT 5'PFS AUA 3'PFS CAU (mixed)
# RNA 1: B1 RNA 1
# RNA 2: B1 RNA 2 with U27A, A28U, U29A, A52C, C53A
# B8: target 2 MT 5'PFS ACC 3'PFS ACA (mixed)
# RNA 1: B1 RNA 1
# RNA 2: B1 RNA 2 with U27A, A28C, U29C, U54A
# B9: target 1 C6G,G15C (mixed)
# RNA 1: CACCCGUGCAAAAAUGCAGGGGUCUAAAACUGAGCGGAUAACCUCUCUAUGG
# RNA 2: GGGAAUGGAUCCACAUCUACGAAUUCGUACCAUAGACAGGUUAUCGGCUCACCGAGAUCGGAAGAGCACACGU
# B10: target 2 MT 5'PFS GCC 3'PFS ACA (mixed)
# RNA 1: B1 RNA 1
# RNA 2: B1 RNA 2 with U27G, A28C, U29C, U54A
# B11: target 2 MT 5'PFS GCC 3'PFS ACG (mixed)
# RNA 1: B1 RNA 1
# RNA 2: B1 RNA 2 with U27G, A28C, U29C, U54G
# B12: target 2 MT 5'PFS AUA 3'PFS CAG (mixed)
# RNA 1: B1 RNA 1
# RNA 2: B1 RNA 2 with U27A, A28U, U29A, A52C, C53A, U54G
# B13: target 2 MT 5'PFS AUA 3'PFS CAA (mixed)
# RNA 1: B1 RNA 1
# RNA 2: B1 RNA 2 with U27A, A28U, U29A, A52C, C53A, U54A
# B14: target 2 MT 5'PFS AUA 3'PFS CAC (mixed)
# RNA 1: B1 RNA 1
# RNA 2: B1 RNA 2 with U27A, A28U, U29A, A52C, C53A, U54C
# B15: target 2 MT 5'PFS GUC 3'PFS AGU (mixed)
# RNA 1: B1 RNA 1
# RNA 2: B1 RNA 2 with U27G, A28U, U29C, C53G
# B16: target 2 MT 5'PFS CGA 3'PFS AAC (mixed)
# RNA 1: B1 RNA 1
# RNA 2: B1 RNA 2 with U27C, A28G, U29A, C53A, U54C
# B17: target 2 MT 5'PFS CGA 3'PFS AAA (mixed)
# RNA 1: B1 RNA 1
# RNA 2: B1 RNA 2 with U27C, A28G, U29A, C53A, U54A
# B18: target 2 MT 5'PFS UAA 3'PFS AGC (mixed)
# RNA 1: B1 RNA 1
# RNA 2: B1 RNA 2 with U29A, C53G, U54C
# B19: target 2 MT 5'PFS UAA 3'PFS AGA (mixed)
# RNA 1: B1 RNA 1
# RNA 2: B1 RNA 2 with U29A, C53G, U54A
# B20: target 1 G5U,C6G (mixed)
# RNA 1: B9 RNA 1
# RNA 2: B9 RNA 2 with C37G, G47U
# B21: target 2 MT 5'PFS UAA 3'PFS AGG (mixed)
# RNA 1: B1 RNA 1
# RNA 2: B1 RNA 2 with U29A, C53G, U54G
# B22: target 2 MT 5'PFS UAC 3'PFS CGG (mixed)
# RNA 1: B1 RNA 1
# RNA 2: B1 RNA 2 with U29C, A52C, C53G, U54G
# B23: target 2 MT 5'PFS AAU 3'PFS ACU (mixed)
# RNA 1: B1 RNA 1
# RNA 2: B1 RNA 2 with U27A
# B24: target 2 MT 5'PFS UAC 3'PFS CGC (mixed)
# RNA 1: B1 RNA 1
# RNA 2: B1 RNA 2 with U29C, A52C, C53G, U54C
# B25: target 2 MT 5'PFS UAC 3'PFS CGA (mixed)
# RNA 1: B1 RNA 1
# RNA 2: B1 RNA 2 with U29C, A52C, C53G, U54A
# B26: target 2 MT 5'PFS CUG 3'PFS UCG (mixed)
# RNA 1: B1 RNA 1
# RNA 2: B1 RNA 2 with U27C, A28U, U29G, A52U, U54G
# B27: target 2 MT 5'PFS CUG 3'PFS UCA (mixed)
# RNA 1: B1 RNA 1
# RNA 2: B1 RNA 2 with U27C, A28U, U29G, A52U, U54A
# B28: target 2 MT 5'PFS CUG 3'PFS UCC (mixed)
# RNA 1: B1 RNA 1
# RNA 2: B1 RNA 2 with U27C, A28U, U29G, A52U, U54C
# B29: target 2 MT 5'PFS GGU 3'PFS UGC (mixed)
# RNA 1: B1 RNA 1
# RNA 2: B1 RNA 2 with U27G, A28G, A52U, C53G, U54C
# B30: target 2 MT 5'PFS GUC 3'PFS CGU (mixed)
# RNA 1: B1 RNA 1
# RNA 2: B1 RNA 2 with U27G, A28U, U29C, A52C, C53G
# B31: target 1 C6U,A14U (mixed)
# RNA 1: B9 RNA 1
# RNA 2: B9 RNA 2 with C37G, A38U, G46U
# B32: target 2 MT 5'PFS CUG 3'PFS UCU (mixed)
# RNA 1: B1 RNA 1
# RNA 2: B1 RNA 2 with U27C, A28U, U29G, A52U
# B33: target 2 MT 5'PFS GUC 3'PFS CGC (mixed)
# RNA 1: B1 RNA 1
# RNA 2: B1 RNA 2 with U27G, A28U, U29C, A52C, C53G, U54C
# Target: T1, EsCas13d, nuclease-dead
# Test: crRNA (strand 1, pre-loaded); Mg2+; 40 mM Tris-HCl pH 7.5, 150 mM NaCl, 6 mM MgCl2, 1 mM DTT, 0.1% Tween-20, 0.2 mg/ml BSA; 25 C; 10 min per concentration, then washed
# Conditions: tags: His6-TwinStrep-SUMO cleaved; N-terminal SNAP kept (SNAP-Surface 488); label: 3' end held by stalled T7 RNA polymerase
row,Binder,Kd
1,B1,76 ± 25 nM
2,B2,8.6 ± 0.9 nM
3,B3,58 ± 6 nM
4,B4,12.1 ± 1.3 nM
5,B5,21 ± 2.6 nM
6,B6,12.9 ± 1.9 nM
7,B7,4.6 ± 0.8 nM
8,B8,8 ± 4 nM
9,B9,47 ± 10 nM
10,B10,10.8 ± 1.1 nM
11,B11,12.2 ± 1.4 nM
12,B12,8.4 ± 2.6 nM
13,B13,4.6 ± 1.3 nM
14,B14,5.4 ± 1.1 nM
15,B15,16.5 ± 2.6 nM
16,B16,7.5 ± 1.1 nM
17,B17,13 ± 5 nM

row,Binder,Kd
1,B18,3.2 ± 0.4 nM
2,B19,3.4 ± 0.6 nM
3,B20,9.5 ± 0.32 nM
4,B21,4.5 ± 0.6 nM
5,B22,3.6 ± 0.5 nM
6,B23,6.2 ± 0.7 nM
7,B24,5.5 ± 0.8 nM
8,B25,6 ± 1.9 nM
9,B26,3.1 ± 0.4 nM
10,B27,5 ± 0.6 nM
11,B28,6.1 ± 0.5 nM
12,B29,23 ± 4 nM
13,B30,17.5 ± 2.8 nM
14,B31,58 ± 20 nM
15,B32,6.3 ± 0.4 nM
16,B33,16.9 ± 1.3 nM
